# Results published in US20160289280A1, “Fusion protein of recombinant ganoderma immunoregulatory protein and human serum albumin, preparation method thereof, and application thereof” (priority 2013, published 2016).
# Marks after values point to notes of the source that are not given here.
# B1: rLZ-8-HSA: fusion protein of ganoderma immunoregulatory protein (LZ-8) and human serum albumin, linker GGGGSS, SEQ ID NO. 1 (protein)
# chain: SDTALIFRLAWDVKKLSFDYTPNWGRGNPNNFIDTVTFPKVLTDKAYTYRVAVSGRNLGVKPSYAVESDGSGKVNFLEYNSGYGIADTNTIGVFVVDPDTNNDFIIAGWNGGGGSSMKWVTFISLLFLFSSAYSRGVFRRDAHKSEVAHRFKDLGEENFKALVLIAFAGYLGGCPFEDHVKLVNEVTEFAKTCVADESAENCDKSLHTLFGDKLCTVATLRETYGEMADCCAKGEPERNECFLGHKDDNPNLPRLVRPEVDVMCTAFHDNEETFLKKYLYEIARRHPYFYAPELLFFAKRYKAAFTECCGAADKAACLLPKLDELRDEGKASSAKGRLKCASLGKFGERAFKAWAVARLSGRFPKAEFAEVSKLVTDLTKVHTECCHGDLLECADDRADLAKYICENGDSISSKLKECCEKPLLEKSHCIAEVENDEMPADLPSLAADFVESKDVCKNYAEAKDVFLGMFLYEYARRHPDYSVVLLLRLAKTYETTLEKCCAAADPHECYAKVFDEFKPLVEEPGNLIKGNCELFEGLGEYKFGNALLVRYTKKVPGVSTPTLVEVSRNLGKVGSKCCKHPEAKRMPCAEDYLSVVLNGLCVLHEKTPVSDRVTKCCTESLVNRRPCFSALEVDETYVPKEFNAETFTFHADICTLSEKERGIKKGTALVELVKHKPKATKEGLKAVMDDFAAFVEKCCKADDKETCFAEEGKKLVAASGAALGL
# modifications: rLZ-8-HSA sequence
# How the values were obtained:
# [1] = system: melanoma; assay: in vitro inhibition effect on melanoma, WST-1 method; format: cell-based; details: 24 h, x ± s, n = 9
# Protocol: In vitro experiment: testing the inhibition effect of the fusion protein rLZ-8-HSA on the melanoma through a WST-1 method, preparing tissue suspension of the melanoma; adding 100 μl the tissue suspension into 900 μl 2% glacial acetic acid and counting with a microscope; adjusting a tissue concentration to 2×10^5/ml with DMEM comprising 2% calf serum; respectively preparing the fusion protein rLZ-8-HSA and the rLZ-8 with same molar concentration gradient, wherein there are 3 gradient concentrations, each concentration occupies 9 wells with 100 μl per well; adding tissue suspension with a concentration of 2×10^5/ml with 100 μl per well; shaking for evenly mixing, and then putting into a 37° C., 5% CO2 incubation device to incubate for 24 h; after incubation, adding WST-1 with 20 μl per well; putting into the 37° C., 5% CO2 incubation device to incubate for 3 h, then testing OD450 (with a BIO-RAD); wherein results are listed in table 3.
# [2] = system: platelets; assay: treatment of mouse thrombocytopenia caused by cyclophosphamide, platelet count; format: in vivo; details: for platelets after: after cyclophosphamide, before treatment; for platelets before: baseline before cyclophosphamide
# Protocol: Experimental medicine: preparing a 19.25 μg·kg^−1 and a 9.625 μg·kg^−1 dosage groups of the recombinant ganoderma immunoregulatory protein (rLZ-8) with sterile injection water, and 0.2 ml per mouse; and preparing a 19.25 μg·kg^−1 and a 9.625 μg·kg^−1 dosage groups (judging from the LZ-8) of the fusion protein rLZ-8-HSA of the recombinant ganoderma immunoregulatory protein.
# Positive control medicine: thrombopoietin (THPO) from Shenyang 3SBio Inc., with a dosage of 770 μg·kg^−1/d and 0.2 ml per mouse.
# Chemotherapy medicine: cyclophosphamide (Cy) from Jiangsu Hengrui Medicine Co., Ltd, whose batch number is 12112121, 200 mg/bottle; preparing into 100 mg·kg^−1, 0.2 ml per mouse with sterile injection water.
# Platelet dilution: urea: 1.3 g; sodium citrate: 0.5 g; formaldehyde: 0.1 ml; adding distilled water to 100 ml for mixing, then filtering for further utilization.
# Experimental method: dividing experimental animals into 5 groups, wherein each group comprises 10 mice with 5 males and 5 females; except for a normal control group (injected with normal saline having an equal volume), abdominally injecting the cyclophosphamide to the mice with a dosage of 100 mg·kg^−1, 0.2 ml per mouse per day, and lasting for three days; when a platelet quantity decreased to below 300×10^9/L, subcutaneously injecting the rLZ-8, the fusion protein rLZ-8-HAS (19.25 μg·kg^−1, 9.625 μg·kg^−1, 0.2 ml·per mouse per day) and the positive medicine (THPO 770 μg·kg^−1, 0.2 ml·per mouse per day) according to the above groups with corresponding dosages, and injecting the normal saline having the equal volume to the normal control group and a CP group; respectively sampling mouse tail vein blood 3 d, 7 d and 14 d after treatment, counting platelets with high power lens, wherein results thereof are listed in table 7.
# [3] = system: mouse spleen cells; assay: promotion of mouse spleen cell proliferation, WST-1 method; format: cell-based; details: for OD450, promotion of cell proliferation: 24 h, x ± s, n = 9
# Protocol: Testing effects of the fusion proteins on mouse spleen cell proliferation by a WST-1 method, which illustrates strength of biological activity, wherein according to the present invention, BALB/c female mice are used, whose weight is controlled at 20-22 g; executing the mice by stretching necks thereof, taking out spleens under a sterile condition, and putting into a plate with 5 ml DMEM comprising 10% calf serum; cracking the spleens with tweezers, filtering tissue suspension with gauze for removing tissue blocks, and preparing cell suspension of spleen cells; adding 100 μl the tissue suspension into 900 μl 2% glacial acetic acid for counting with a microscope; adjusting a cell concentration to 5×10^6/ml with DMEM comprising 2% calf serum; respectively preparing the fusion proteins and the rLZ-8 with same molar concentration gradient, wherein there are 3 gradient concentrations, each concentration occupies 9 wells with 100 μl per well; adding tissue suspension with a concentration of 5×10^6/ml with 100 μl per well; shaking for evenly mixing, and then putting into a 37° C., 5% CO2 incubation device to incubate for 24 h; after incubation, adding WST-1 with 20 μl per well; putting into the 37° C., 5% CO2 incubation device to incubate for 3 h, then testing OD450 (with a BIO-RAD); wherein results are listed in table 1.
# [4] = system: mouse melanoma cells B16-F10; assay: mouse B16-F10 transplanted tumor model, in situ tumor weight; format: in vivo; details: tail vein once a day, 28 days
# Protocol: In vivo experiment: firstly, establishing a mouse tumor mould, wherein mouse melanoma cells B16-F10 is cultured with the DMEM comprising 10% fetal calf serum at 37° C. in a CO2 incubation device; slowly subcutaneously injecting 200 μl B16-F10 cell suspension (comprising 1×10^7 cells) with a 1 ml injector at mouse dorsal-ventral skin, so as to establish a mouse transplanted tumor mould.
# [5] = system: leukocytes; assay: treatment of rat models with leucopenia caused by cyclophosphamide, leukocyte count; format: in vivo; details: for leukocyte number before: baseline after CP modeling, before treatment
# Description: Utilizing Wistar rats in the experiments, wherein 18 rats weighing about 100 g are utilized. […] The experiment has an rLZ-8 low-dosage group, an rLZ-8 middle-dosage group, an rLZ-8 high-dosage group, an rLZ-8-HSA low-dosage group, an rLZ-8-HSA middle-dosage group, an rLZ-8-HSA high-dosage group, and a positive medicine control group (utilizing the […]®). […] On the third day, the blood is sampled from the tail vein, and the leukocytes are counted by a cytoanalyzer. After successful modeling, the rats of each the group are respectively treated with the rLZ-8, the three kinds of the fusion proteins, or the positive medicine (the […]®) with the corresponding dosage, and the equal sterile saline is given to the rats of the normal control and a CP group. The blood is sampled from the tail vein on the first, third and seventh treatment days, and the leukocytes are counted by the cytoanalyzer. Medicine efficacy is analyzed according to a number difference of the leukocyte between before and after the treatment.
# [6] = 9.625 μg·kg^−1 (LZ-8) subcutaneously per day
# [7] = 19.25 μg·kg^−1 (LZ-8) subcutaneously per day
# [8] = high-dosage 60 μg/kg (LZ-8 dosage)
# [9] = low-dosage 15 μg/kg (LZ-8 dosage)
# [10] = middle-dosage 30 μg/kg (LZ-8 dosage)
molecule,measurement,setting,value
B1,"OD450, inhibition effect on melanoma",[1]; protein 5.0 × 10^−9 mol/L,0.411 ± 0.31
same,"OD450, inhibition effect on melanoma",[1]; protein 10.0 × 10^−9 mol/L,0.212 ± 0.29
same,"OD450, inhibition effect on melanoma",[1]; protein 15.0 × 10^−9 mol/L,0.118 ± 0.11
same,platelets 3rd day,[2]; [6],624 ± 0.43* *10^9/L
same,platelets 7th day,[2]; [6],697 ± 0.43* *10^9/L
same,platelets 14th day,[2]; [6],929 ± 0.61** *10^9/L
same,platelets after,[2]; 9.625 μg·kg^−1 group,261 ± 0.52 *10^9/L
same,platelets before,[2]; 9.625 μg·kg^−1 group,843 ± 0.65 *10^9/L
same,platelets 3rd day,[2]; [7],760 ± 0.38* *10^9/L
same,platelets 7th day,[2]; [7],978 ± 0.67* *10^9/L
same,platelets 14th day,[2]; [7],1035 ± 0.78** *10^9/L
same,platelets after,[2]; 19.25 μg·kg^−1 group,246 ± 0.36 *10^9/L
same,platelets before,[2]; 19.25 μg·kg^−1 group,852 ± 0.82 *10^9/L
same,platelet recovery compared with the CP group,"[2]; rLZ-8-HSA groups, p<0.05",returned to normal at the third day
same,"OD450, promotion of cell proliferation",[3]; protein 5.0 × 10^−9 mol/L,0.936 ± 0.31
same,"OD450, promotion of cell proliferation",[3]; protein 10.0 × 10^−9 mol/L,1.680 ± 0.38
same,"OD450, promotion of cell proliferation",[3]; protein 15.0 × 10^−9 mol/L,2.373 ± 0.35
same,promotion of spleen cell proliferation compared with rLZ-8,[3]; same protein concentration,better than the rLZ-8
same,tumor inhibition rate,[4]; high-dosage 492 μg/kg (LZ-8),89.51 ± 0.88 %
same,tumor weight,[4]; high-dosage 492 μg/kg (LZ-8),0.13 ± 0.05 g
same,tumor inhibition rate,[4]; low-dosage 123 μg/kg (LZ-8),71.77 ± 0.31 %
same,tumor weight,[4]; low-dosage 123 μg/kg (LZ-8),0.35 ± 0.11 g
same,tumor inhibition rate,[4]; middle-dosage 246 μg/kg (LZ-8),78.22 ± 0.47 %
same,tumor weight,[4]; middle-dosage 246 μg/kg (LZ-8),0.27 ± 0.14 g
same,leukocyte number relative to the rLZ-8 groups with the same dosage,[5]; first treatment day,about 2 times
same,leukocyte number on the first treatment day,[5]; [8],8.4e+09 L⁻¹
same,leukocyte number on the seventh treatment day,[5]; [8],1.55e+10 L⁻¹
same,leukocyte number on the third treatment day,[5]; [8],1.44e+10 L⁻¹
same,leukocyte number before,[5]; [8],3.33e+09 L⁻¹
same,leukocyte number on the first treatment day,[5]; [9],8.5e+09 L⁻¹
same,leukocyte number on the seventh treatment day,[5]; [9],1.32e+10 L⁻¹
same,leukocyte number on the third treatment day,[5]; [9],1.08e+10 L⁻¹
same,leukocyte number before,[5]; [9],3.11e+09 L⁻¹
same,leukocyte number on the first treatment day,[5]; [10],9.2e+09 L⁻¹
same,leukocyte number on the seventh treatment day,[5]; [10],1.34e+10 L⁻¹
same,leukocyte number on the third treatment day,[5]; [10],1.198e+10 L⁻¹
same,leukocyte number before,[5]; [10],2.89e+09 L⁻¹
